T1: mouse TREM1 (mouse, UniProt Q9JKE2 21-230)
T1 chain: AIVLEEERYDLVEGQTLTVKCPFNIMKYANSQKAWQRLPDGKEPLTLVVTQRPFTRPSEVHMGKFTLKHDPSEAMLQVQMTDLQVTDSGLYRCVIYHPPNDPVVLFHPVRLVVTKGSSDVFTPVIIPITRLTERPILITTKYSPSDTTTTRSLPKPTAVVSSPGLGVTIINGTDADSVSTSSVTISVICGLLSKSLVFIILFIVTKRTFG

T2: cynomolgus TREM1 (cynomolgus, UniProt A0A2K5VHG8 21-233)
T2 chain: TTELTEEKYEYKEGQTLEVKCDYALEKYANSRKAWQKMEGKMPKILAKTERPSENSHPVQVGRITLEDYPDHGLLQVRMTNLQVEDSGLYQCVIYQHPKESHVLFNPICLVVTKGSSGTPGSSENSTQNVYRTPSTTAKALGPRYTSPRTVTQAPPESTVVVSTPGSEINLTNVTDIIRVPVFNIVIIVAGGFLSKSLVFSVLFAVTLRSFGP


How the values were obtained:
mouse TREM1 [1] = target: T1, mouse TREM1; assay: SPR (Biacore); avid
mouse TREM1 [2] = target: T1, mouse TREM1; assay: cell binding
mouse TREM1 [3] = target: T1, mouse TREM1; assay: cell binding; BALB/c splenocyte neutrophils
cynomolgus TREM1 [4] = target: T2, cynomolgus TREM1; assay: flow cytometry cell binding
cynomolgus TREM1 [5] = target: T2, cynomolgus TREM1; assay: cell binding
9067s = assay: SPR

Binder	Kd (mouse TREM1 [1]) [nM]	EC50 (mouse TREM1 [2]) [nM]	EC50 (mouse TREM1 [3]) [nM]	EC50 (cynomolgus TREM1 [4]) [nM]	EC50 (cynomolgus TREM1 [5]) [nM]	Kd (9067s) [nM]
Pi-4928 (antibody, V domains shown) VH: QVQLKESGPGLVQPSQTLSLTCTVSGFSITSSNVYWFRQPPGKGLEWMGNIWGDGSTDYNSSLKSRLTLSRDTSKNQVFLKINSLQSEDTATYFCTRSWEYYFDHWGQGVVVTVSS VL: DIVLTQSPALAVSPGQRATLSCRASQSVTLSNVNLMNWYQQKPGQQPKLLIYHASNLASGIPTRFSGSGSGTDFTLTIDPVQADDIAAYYCQQSGESPRTFGGGTKVELKR	0.11	1.41	1.36	–	–	–
Pi-9067L (antibody, V domains shown) VH: EVQLVESGGGLVQPGGSLRLSCAASGFDIYSYSIHWVRQAPGKGLEWVAYIYPSYGYTSYADSVKGRFTISADTSKNTAYLQMNSLRAEDTAVYYCARGAVAALDYWGQGTLVTVSS VL: DIQMTQSPSSLSASVGDRVTITCRASQSVSSAVAWYQQKPGKAPKLLIYSASSLYSGVPSRFSGSRSGTDFTLTISSLQPEDFATYYCQQYGVSGYSLITFGQGTKVEIKR	0.09	1.85	0.98	–	–	–
Pi-9772 (antibody, V domains shown) VH: EVQLVESGGGLVQPGGSLRLSCAASGFDLSYSSMHWVRQAPGKGLEWVAYISPYSGYTSYADSVKGRFTISADTSKNTAYLQMNSLRAEDTAVYYCARHGSWSYGFSSGFDYWGQGTLVTVSS VL: DIQMTQSPSSLSASVGDRVTITCRASQSVSSAVAWYQQKPGKAPKLLIYSASSLYSGVPSRFSGSRSGTDFTLTISSLQPEDFATYYCQQYAYYYPITFGQGTKVEIKR	0.15	2.85	6.83	–	–	–

Further lines, results first:

Kd (mouse TREM1 [1]) [nM]	EC50 (mouse TREM1 [2]) [nM]	EC50 (mouse TREM1 [3]) [nM]	EC50 (cynomolgus TREM1 [4]) [nM]	EC50 (cynomolgus TREM1 [5]) [nM]	Kd (9067s) [nM]	Binder
0.11	2.32	–	–	–	–	afucosylated Pi-4928 (antibody, V domains shown, afucosylated Fc glycan) VH: QVQLKESGPGLVQPSQTLSLTCTVSGFSITSSNVYWFRQPPGKGLEWMGNIWGDGSTDYNSSLKSRLTLSRDTSKNQVFLKINSLQSEDTATYFCTRSWEYYFDHWGQGVVVTVSS VL: DIVLTQSPALAVSPGQRATLSCRASQSVTLSNVNLMNWYQQKPGQQPKLLIYHASNLASGIPTRFSGSGSGTDFTLTIDPVQADDIAAYYCQQSGESPRTFGGGTKVELKR
–	–	–	0.13	0.13	–	mAb0170 (antibody, V domains shown) VH: EVQLVESGGGLVQPGGSLKLSCAASGFTFSTYAMHWVRQASGKGLEWVGRIRTKSSNYATYYAASVKGRFTISRDDSKNTAYLQMNSLKTEDTAVYYCTRDMGIRRQFAYWGQGTLVTVSS VL: DIVLTQSPDSLAVSLGERATINCRASESVDTFDYSFLHWYQQKPGQPPKLLIYRASNLESGVPDRFSGSGSGTDFTLTISSLQAEDVAVYYCQQSNEDPYTFGQGTKLEIK
0.15	2.9	–	–	–	–	afucosylated Pi-9067L (antibody, V domains shown, afucosylated Fc glycan) VH: EVQLVESGGGLVQPGGSLRLSCAASGFDIYSYSIHWVRQAPGKGLEWVAYIYPSYGYTSYADSVKGRFTISADTSKNTAYLQMNSLRAEDTAVYYCARGAVAALDYWGQGTLVTVSS VL: DIQMTQSPSSLSASVGDRVTITCRASQSVSSAVAWYQQKPGKAPKLLIYSASSLYSGVPSRFSGSRSGTDFTLTISSLQPEDFATYYCQQYGVSGYSLITFGQGTKVEIKR
–	–	–	–	–	0.87	Protein binding (receptor) AIVLEEERYDLVEGQTLTVKCPFNIMKYANSQKAWQRLPDGKEPLTLVVTQRPFTRPSEVHMGKFTLKHDPSEAMLQVQMTDLQVTDSGLYRCVIYHPPNDPVVLFHPVRLVVTKGSSDVFTPVIIPITRLTERPILITTKYSPSDTTTTRSLPKPTAVVSSPGLGVTIINGTDADSVSTSSVTISVICGLLSKSLVFIILFIVTKRTFG
0.71	6.35	–	–	–	–	afucosylated Pi-9772 (antibody, V domains shown, afucosylated Fc glycan) VH: EVQLVESGGGLVQPGGSLRLSCAASGFDLSYSSMHWVRQAPGKGLEWVAYISPYSGYTSYADSVKGRFTISADTSKNTAYLQMNSLRAEDTAVYYCARHGSWSYGFSSGFDYWGQGTLVTVSS VL: DIQMTQSPSSLSASVGDRVTITCRASQSVSSAVAWYQQKPGKAPKLLIYSASSLYSGVPSRFSGSRSGTDFTLTISSLQPEDFATYYCQQYAYYYPITFGQGTKVEIKR
